Measurements from the Human Domainome abundance scans (Beltran et al. 2025).

B1: Zinc finger homeobox protein 4, residues 2562 to 2617; numbered along this chain, Q86UP3 (parent)
chain: RLRTTITPEQLEILYEKYLLDSNPTRKMLDHIAREVGLKKRVVQVWFQNTRARERK
B2: RAS guanyl-releasing protein 1, residues 539 to 593; numbered along this chain, O95267 (parent)
chain: GFPHNFQETTYLKPTFCDNCAGFLWGVIKQGYRCKDCGMNCHKQCKDLVVFECKK

Variants of: B1
Experiment: abundance fitness (aPCA) (normalised: wild type 0, dead -1); higher = more abundant; growth selection in yeast, the domain comes from the species named
Conditions: Homo sapiens

Abundance fitness: each site, then its substitutions
N49: T -0.102, V -0.125, W -0.422, Y -0.414
T50: A 0.041, C -0.345, E 0.265, F -0.069, G -0.367, H -0.034, I -0.042, K 0.028, L -0.137, M -0.094, N -0.127, P -0.738, R 0.08, S 0.06, V -0.068, W -0.097, Y -0.107
R51: A 0.17, C -0.267, E -0.15, F -0.08, G -0.151, H 0.32, I 0.134, K 0.039, L 0.234, M -0.021, N 0.156, P -1.05, S 0.086, T -0.242, V 0.017, W 0.057, Y -0.192
A52: C -0.702, D 0.384, E 0.283, F -0.498, G -0.096, H -0.172, K -0.086, L -0.226, M -0.268, N 0.189, P -0.693, Q -0.035, R -0.321, S -0.197, T -0.372, V -0.327, W -0.347, Y -0.781
R53: A -0.014, C 0.045, D 0.226, E 0.394, F 0.066, G 0.054, H 0.104, I -0.156, K 0.14, L 0.039, M 0.077, N 0.052, P -0.373, Q 0.145, S 0.168, T 0.021, V -0.03, W -0.315, Y -0.62
E54: A -0.433, C -0.811, D -0.122, F 0.025, G -0.362, H -0.672, I -0.283, K -0.722, L -0.201, M -0.09, P -0.545, Q -0.664, R -0.615, S -0.254, T -0.737, V -0.523, W -0.307, Y -0.715
R55: A 0.107, C 0.063, D 0.262, F -0.23, G 0.11, H -0.086, I 0.053, K -0.035, L 0.128, M 0.128, N 0.297, P 0.001, Q -0.078, S 0.09, V 0.276, W -0.114, Y 0.05
K56: A -0.241, D 0.085, E 0.273, G 0.184, I -0.305, M -0.023, R -0.701, S -0.043, T 0.267, V -0.282

Variants of: B2
Experiment: as above
Conditions: Homo sapiens

Abundance fitness: each site, then its substitutions
G1: D 0.188, E 0.003, L -0.027, M 0.477, R -0.187, S 0.218, V -0.007, W -0.46
F2: A -0.261, C -0.214, D -0.086, E -0.343, G -0.335, H -0.048, I 0.097, K -0.108, M -0.051, N 0.214, Q -0.282, R -0.118, T -0.15, V -0.282, W -0.523, Y -0.019
P3: A -0.047, C 0.291, D 0.677, E 0.357, F 0.483, G 0.116, H 0.17, I 0.209, K -0.171, L 0.007, M 0.131, N 0.227, Q 0.14, R -0.015, S 0.099, T 0.06, V 0.064, Y 0.394
H4: A -0.878, D -0.595, E -0.628, G -0.847, K -0.243, L -1.07, M -0.335, N -0.708, P -0.915, Q -0.804, S -0.92, V -0.947, W -1.04, Y -0.716
N5: A -0.141, C -0.23, D -0.104, E -0.098, F -0.226, G -0.075, H 0.001, I -0.039, K -0.157, L -0.026, M -0.018, P -0.403, Q -0.051, R -0.169, S -0.066, T -0.026, V -0.218, W -0.14, Y -0.459
F6: A -0.267, C -0.132, D -0.788, E -0.551, G -0.627, H -0.319, I -0.269, K -0.647, L -0.138, M -0.01, N -0.29, P -0.477, Q -0.309, R -0.574, S -0.252, T -0.436, V -0.06, W -0.667, Y -0.093
Q7: A -0.027, C -0.366, D -0.204, E -0.073, G -0.116, H -0.096, I -0.217, K -0.484, L -0.149, M 0.028, N 0.016, P -0.961, R -0.123, S -0.127, T -0.236, V -0.197, Y -0.151
E8: A 0.039, C -0.107, D -0.452, F -0.096, G 0.007, H -0.765, I -0.063, M 0.197, N -0.152, P -0.303, Q 0.086, R -0.068, S -0.191, T -0.274, V 0.039, W -0.174, Y -0.105
T9: C -0.035, D -0.131, E -0.376, F -0.216, G -0.273, H -0.021, I -0.203, K -0.473, L -0.184, M 0.034, N -0.051, P -0.768, Q -0.056, R -0.068, S 0.028, W -0.136, Y -0.013
T10: A -0.408, E -0.925, F -0.045, G -0.208, H -0.364, I -0.576, K -0.456, L -0.426, M -0.682, N -0.311, P -0.605, Q -0.357, R -0.494, S -0.092, V -0.95, W -0.073, Y -0.291
Y11: A -0.267, C -0.151, D -0.832, E -0.256, F 0.227, H 0, I -0.301, K -0.036, L -0.031, N -0.225, P -0.742, Q -0.458, R -0.214, S 0.028, T -0.318, V -0.25, W -0.17
L12: C -0.183, D -0.424, E -0.19, F -0.076, G -0.038, I -0.63, M 0.319, N -0.768, P -0.149, Q -0.337, R -0.178, S -0.123, T -0.25, V -0.39, W -0.298, Y -0.145
K13: A -0.223, C -0.153, D -0.603, E -0.565, F -0.167, G -0.333, H 0.015, I -0.257, L -0.028, M 0.04, N -0.336, P -0.507, Q -0.247, R -0.231, S -0.116, T -0.105, V -0.106, W -0.131
P14: A -0.253
